Reference: patent US12679878B2, “CRF2 receptor agonists and their use in therapy” (SANOFI, priority 2020, dated 2026)
Starred links: 1 amine or outer side, 2 acyl side, 3 side chain; linkers in the order of their positions; H or OH if unused. Non-standard residues stand in square brackets, D forms with d. Groups on a side chain read outwards from the residue. No end group written: not given here. *: point of attachment. C18 diacid = O=C(O)CCCCCCCCCCCCCCCCC(=O)*; γGlu = O=C(O)[C@H](CCC(=O)[*:2])N[*:1]; AEEA = NCCOCCOCC(=O)O; Aib = CC(C)(N)C(=O)O

T1: CRF1R receptor (anti-target) (UniProt P34998 24-415, limits assumed)
T1 sequence (looked up): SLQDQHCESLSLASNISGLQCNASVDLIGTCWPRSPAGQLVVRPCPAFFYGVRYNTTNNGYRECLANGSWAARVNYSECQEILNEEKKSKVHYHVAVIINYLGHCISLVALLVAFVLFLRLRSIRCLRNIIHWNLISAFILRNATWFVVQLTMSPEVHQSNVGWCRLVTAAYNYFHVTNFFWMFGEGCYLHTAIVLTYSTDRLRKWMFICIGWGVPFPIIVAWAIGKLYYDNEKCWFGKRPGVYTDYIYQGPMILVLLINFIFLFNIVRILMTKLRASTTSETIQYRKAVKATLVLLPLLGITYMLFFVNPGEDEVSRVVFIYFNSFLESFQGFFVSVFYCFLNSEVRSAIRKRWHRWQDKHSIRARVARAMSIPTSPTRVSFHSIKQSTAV


biological target: T1, CRF1R receptor (anti-target); assay: cell-based or functional assay

Row | Binder | EC50 [nM] 0% HSA (cAMP, HTRF) [nM] | Emax (%) (100% = Sauvagine at 100 nM)
1 | IVLSLD[dV]PIKLK([AEEA-AEEA-γGlu-C18 diacid])QILLKQERQKKQREQAETNKQILAQV-NH2 (N-terminus assumed; SMILES CC[C@H](C)[C@H](N)C(=O)N[C@H](C(=O)N[C@@H](CC(C)C)C(=O)N[C@@H](CO)C(=O)N[C@@H](CC(C)C)C(=O)N[C@@H](CC(=O)O)C(=O)N[C@@H](C(=O)N1CCC[C@H]1C(=O)N[C@H](C(=O)N[C@@H](CCCCN)C(=O)N[C@@H](CC(C)C)C(=O)N[C@@H](CCCCNC(=O)COCCOCCNC(=O)COCCOCCNC(=O)CC[C@H](NC(=O)CCCCCCCCCCCCCCCCC(=O)O)C(=O)O)C(=O)N[C@@H](CCC(N)=O)C(=O)N[C@H](C(=O)N[C@@H](CC(C)C)C(=O)N[C@@H](CC(C)C)C(=O)N[C@@H](CCCCN)C(=O)N[C@@H](CCC(N)=O)C(=O)N[C@@H](CCC(=O)O)C(=O)N[C@@H](CCCNC(=N)N)C(=O)N[C@@H](CCC(N)=O)C(=O)N[C@@H](CCCCN)C(=O)N[C@@H](CCCCN)C(=O)N[C@@H](CCC(N)=O)C(=O)N[C@@H](CCCNC(=N)N)C(=O)N[C@@H](CCC(=O)O)C(=O)N[C@@H](CCC(N)=O)C(=O)N[C@@H](C)C(=O)N[C@@H](CCC(=O)O)C(=O)N[C@H](C(=O)N[C@@H](CC(N)=O)C(=O)N[C@@H](CCCCN)C(=O)N[C@@H](CCC(N)=O)C(=O)N[C@H](C(=O)N[C@@H](CC(C)C)C(=O)N[C@@H](C)C(=O)N[C@@H](CCC(N)=O)C(=O)N[C@H](C(N)=O)C(C)C)[C@@H](C)CC)[C@@H](C)O)[C@@H](C)CC)[C@@H](C)CC)C(C)C)C(C)C) [peptide of SEQ ID NO: 102] | > 100 | 9
2 | IVLSLDVPIKLK([AEEA-AEEA-γGlu-C18 diacid])QILLKQERQKKEREQAETNKQILAQV-NH2 (N-terminus assumed; SMILES CC[C@H](C)[C@H](N)C(=O)N[C@H](C(=O)N[C@@H](CC(C)C)C(=O)N[C@@H](CO)C(=O)N[C@@H](CC(C)C)C(=O)N[C@@H](CC(=O)O)C(=O)N[C@H](C(=O)N1CCC[C@H]1C(=O)N[C@H](C(=O)N[C@@H](CCCCN)C(=O)N[C@@H](CC(C)C)C(=O)N[C@@H](CCCCNC(=O)COCCOCCNC(=O)COCCOCCNC(=O)CC[C@H](NC(=O)CCCCCCCCCCCCCCCCC(=O)O)C(=O)O)C(=O)N[C@@H](CCC(N)=O)C(=O)N[C@H](C(=O)N[C@@H](CC(C)C)C(=O)N[C@@H](CC(C)C)C(=O)N[C@@H](CCCCN)C(=O)N[C@@H](CCC(N)=O)C(=O)N[C@@H](CCC(=O)O)C(=O)N[C@@H](CCCNC(=N)N)C(=O)N[C@@H](CCC(N)=O)C(=O)N[C@@H](CCCCN)C(=O)N[C@@H](CCCCN)C(=O)N[C@@H](CCC(=O)O)C(=O)N[C@@H](CCCNC(=N)N)C(=O)N[C@@H](CCC(=O)O)C(=O)N[C@@H](CCC(N)=O)C(=O)N[C@@H](C)C(=O)N[C@@H](CCC(=O)O)C(=O)N[C@H](C(=O)N[C@@H](CC(N)=O)C(=O)N[C@@H](CCCCN)C(=O)N[C@@H](CCC(N)=O)C(=O)N[C@H](C(=O)N[C@@H](CC(C)C)C(=O)N[C@@H](C)C(=O)N[C@@H](CCC(N)=O)C(=O)N[C@H](C(N)=O)C(C)C)[C@@H](C)CC)[C@@H](C)O)[C@@H](C)CC)[C@@H](C)CC)C(C)C)C(C)C) [peptide of SEQ ID NO: 96] | > 100 | 2.3
3 | IVLSLDVPIKLK([AEEA-AEEA-γGlu-C18 diacid])QILLKQERQKKQREQAKTN[Aib]QILAQV-NH2 (N-terminus assumed; SMILES CC[C@H](C)[C@H](N)C(=O)N[C@H](C(=O)N[C@@H](CC(C)C)C(=O)N[C@@H](CO)C(=O)N[C@@H](CC(C)C)C(=O)N[C@@H](CC(=O)O)C(=O)N[C@H](C(=O)N1CCC[C@H]1C(=O)N[C@H](C(=O)N[C@@H](CCCCN)C(=O)N[C@@H](CC(C)C)C(=O)N[C@@H](CCCCNC(=O)COCCOCCNC(=O)COCCOCCNC(=O)CC[C@H](NC(=O)CCCCCCCCCCCCCCCCC(=O)O)C(=O)O)C(=O)N[C@@H](CCC(N)=O)C(=O)N[C@H](C(=O)N[C@@H](CC(C)C)C(=O)N[C@@H](CC(C)C)C(=O)N[C@@H](CCCCN)C(=O)N[C@@H](CCC(N)=O)C(=O)N[C@@H](CCC(=O)O)C(=O)N[C@@H](CCCNC(=N)N)C(=O)N[C@@H](CCC(N)=O)C(=O)N[C@@H](CCCCN)C(=O)N[C@@H](CCCCN)C(=O)N[C@@H](CCC(N)=O)C(=O)N[C@@H](CCCNC(=N)N)C(=O)N[C@@H](CCC(=O)O)C(=O)N[C@@H](CCC(N)=O)C(=O)N[C@@H](C)C(=O)N[C@@H](CCCCN)C(=O)N[C@H](C(=O)N[C@@H](CC(N)=O)C(=O)NC(C)(C)C(=O)N[C@@H](CCC(N)=O)C(=O)N[C@H](C(=O)N[C@@H](CC(C)C)C(=O)N[C@@H](C)C(=O)N[C@@H](CCC(N)=O)C(=O)N[C@H](C(N)=O)C(C)C)[C@@H](C)CC)[C@@H](C)O)[C@@H](C)CC)[C@@H](C)CC)C(C)C)C(C)C) [peptide of SEQ ID NO: 89] | > 100 | 3.7

Results, then the binder that gave them:

Row | EC50 [nM] 0% HSA (cAMP, HTRF) [nM] | Emax (%) (100% = Sauvagine at 100 nM) | Binder
4 | > 100 | 14 | IVLSLDVPIKLK([AEEA-AEEA-γGlu-C18 diacid])QILLEQERQK[Aib]QREQAETNKQILAQV-NH2 (N-terminus assumed; SMILES CC[C@H](C)[C@H](N)C(=O)N[C@H](C(=O)N[C@@H](CC(C)C)C(=O)N[C@@H](CO)C(=O)N[C@@H](CC(C)C)C(=O)N[C@@H](CC(=O)O)C(=O)N[C@H](C(=O)N1CCC[C@H]1C(=O)N[C@H](C(=O)N[C@@H](CCCCN)C(=O)N[C@@H](CC(C)C)C(=O)N[C@@H](CCCCNC(=O)COCCOCCNC(=O)COCCOCCNC(=O)CC[C@H](NC(=O)CCCCCCCCCCCCCCCCC(=O)O)C(=O)O)C(=O)N[C@@H](CCC(N)=O)C(=O)N[C@H](C(=O)N[C@@H](CC(C)C)C(=O)N[C@@H](CC(C)C)C(=O)N[C@@H](CCC(=O)O)C(=O)N[C@@H](CCC(N)=O)C(=O)N[C@@H](CCC(=O)O)C(=O)N[C@@H](CCCNC(=N)N)C(=O)N[C@@H](CCC(N)=O)C(=O)N[C@@H](CCCCN)C(=O)NC(C)(C)C(=O)N[C@@H](CCC(N)=O)C(=O)N[C@@H](CCCNC(=N)N)C(=O)N[C@@H](CCC(=O)O)C(=O)N[C@@H](CCC(N)=O)C(=O)N[C@@H](C)C(=O)N[C@@H](CCC(=O)O)C(=O)N[C@H](C(=O)N[C@@H](CC(N)=O)C(=O)N[C@@H](CCCCN)C(=O)N[C@@H](CCC(N)=O)C(=O)N[C@H](C(=O)N[C@@H](CC(C)C)C(=O)N[C@@H](C)C(=O)N[C@@H](CCC(N)=O)C(=O)N[C@H](C(N)=O)C(C)C)[C@@H](C)CC)[C@@H](C)O)[C@@H](C)CC)[C@@H](C)CC)C(C)C)C(C)C) [peptide of SEQ ID NO: 103]
5 | > 100 | 3.7 | IVLSLDVPIKLK([AEEA-AEEA-γGlu-C18 diacid])QILLKQERQK[Aib]QREQAETNKQILAQV-NH2 (N-terminus assumed; SMILES CC[C@H](C)[C@H](N)C(=O)N[C@H](C(=O)N[C@@H](CC(C)C)C(=O)N[C@@H](CO)C(=O)N[C@@H](CC(C)C)C(=O)N[C@@H](CC(=O)O)C(=O)N[C@H](C(=O)N1CCC[C@H]1C(=O)N[C@H](C(=O)N[C@@H](CCCCN)C(=O)N[C@@H](CC(C)C)C(=O)N[C@@H](CCCCNC(=O)COCCOCCNC(=O)COCCOCCNC(=O)CC[C@H](NC(=O)CCCCCCCCCCCCCCCCC(=O)O)C(=O)O)C(=O)N[C@@H](CCC(N)=O)C(=O)N[C@H](C(=O)N[C@@H](CC(C)C)C(=O)N[C@@H](CC(C)C)C(=O)N[C@@H](CCCCN)C(=O)N[C@@H](CCC(N)=O)C(=O)N[C@@H](CCC(=O)O)C(=O)N[C@@H](CCCNC(=N)N)C(=O)N[C@@H](CCC(N)=O)C(=O)N[C@@H](CCCCN)C(=O)NC(C)(C)C(=O)N[C@@H](CCC(N)=O)C(=O)N[C@@H](CCCNC(=N)N)C(=O)N[C@@H](CCC(=O)O)C(=O)N[C@@H](CCC(N)=O)C(=O)N[C@@H](C)C(=O)N[C@@H](CCC(=O)O)C(=O)N[C@H](C(=O)N[C@@H](CC(N)=O)C(=O)N[C@@H](CCCCN)C(=O)N[C@@H](CCC(N)=O)C(=O)N[C@H](C(=O)N[C@@H](CC(C)C)C(=O)N[C@@H](C)C(=O)N[C@@H](CCC(N)=O)C(=O)N[C@H](C(N)=O)C(C)C)[C@@H](C)CC)[C@@H](C)O)[C@@H](C)CC)[C@@H](C)CC)C(C)C)C(C)C) [peptide of SEQ ID NO: 104]
6 | > 100 | 15.4 | IVLSLDVPIKLK([AEEA-AEEA-γGlu-C18 diacid])QILLEQERQK[Aib]QRQQAETNKQILAQV-NH2 (N-terminus assumed; SMILES CC[C@H](C)[C@H](N)C(=O)N[C@H](C(=O)N[C@@H](CC(C)C)C(=O)N[C@@H](CO)C(=O)N[C@@H](CC(C)C)C(=O)N[C@@H](CC(=O)O)C(=O)N[C@H](C(=O)N1CCC[C@H]1C(=O)N[C@H](C(=O)N[C@@H](CCCCN)C(=O)N[C@@H](CC(C)C)C(=O)N[C@@H](CCCCNC(=O)COCCOCCNC(=O)COCCOCCNC(=O)CC[C@H](NC(=O)CCCCCCCCCCCCCCCCC(=O)O)C(=O)O)C(=O)N[C@@H](CCC(N)=O)C(=O)N[C@H](C(=O)N[C@@H](CC(C)C)C(=O)N[C@@H](CC(C)C)C(=O)N[C@@H](CCC(=O)O)C(=O)N[C@@H](CCC(N)=O)C(=O)N[C@@H](CCC(=O)O)C(=O)N[C@@H](CCCNC(=N)N)C(=O)N[C@@H](CCC(N)=O)C(=O)N[C@@H](CCCCN)C(=O)NC(C)(C)C(=O)N[C@@H](CCC(N)=O)C(=O)N[C@@H](CCCNC(=N)N)C(=O)N[C@@H](CCC(N)=O)C(=O)N[C@@H](CCC(N)=O)C(=O)N[C@@H](C)C(=O)N[C@@H](CCC(=O)O)C(=O)N[C@H](C(=O)N[C@@H](CC(N)=O)C(=O)N[C@@H](CCCCN)C(=O)N[C@@H](CCC(N)=O)C(=O)N[C@H](C(=O)N[C@@H](CC(C)C)C(=O)N[C@@H](C)C(=O)N[C@@H](CCC(N)=O)C(=O)N[C@H](C(N)=O)C(C)C)[C@@H](C)CC)[C@@H](C)O)[C@@H](C)CC)[C@@H](C)CC)C(C)C)C(C)C) [peptide of SEQ ID NO: 105]
